According to article PMC12691606:

Biological target: RGNNV capsid protein (CP) of the virus (red-spotted grouper nervous necrosis virus (RGNNV))

B1: His-EcCXCR4b recombinant protein (pET-32a-EcCXCR4b) (receptor)
chain: MSYYEHIVFDYDLNDTGSGSGSGDMGVDLQELCDMEHVITDELQQVFLPVVYALIFILGITGNGLVVIVLGCQRRSKCSLTDRYRLHLSAADLLFVLALPFWAVDAALADWRFGEVTCVGVNVIYTVNLYGSVLILAFISLDRYLAVVRATDTNTGELRQLLAHKLVYVGAWLPAGLLAVPDLIYARTQEGGEGATLCQRFYPADNGPIWVAVFHLQLVLVGLVIPGLVLLVCYCVIVTRLTRGPLGGQRQKRRAVRTTIALVLCFFVCWLPYGAGISVDALLRLEVLPRSCRLEAILGVWLAVAEPMAFAHCCLNPLLYAFLGAGFKSSARRALTLSRASSLKILPRRRPGASTTTESESSSLHSS
survival rate of groupers over 14 days after injection of RGNNV pre-incubated with His-EcCXCR4b protein (6× His control: 23.3%): 73.3%
